These results are taken from article PMC13038214, “TNFSF13 insufficiency disrupts human colonic epithelial cell growth and associated B cell dynamics” (The Journal of Clinical Investigation, 2026).

The chains are these.
T1: FAS ligand (FASL) used as analyte in SPR (human, UniProt P48023 103-281)
T1 construct: FAS ligand (FASL), the protein flowed over immobilised FAS in SPR as positive control; also called rFASL; recombinant human FAS ligand
T1 sequence (looked up): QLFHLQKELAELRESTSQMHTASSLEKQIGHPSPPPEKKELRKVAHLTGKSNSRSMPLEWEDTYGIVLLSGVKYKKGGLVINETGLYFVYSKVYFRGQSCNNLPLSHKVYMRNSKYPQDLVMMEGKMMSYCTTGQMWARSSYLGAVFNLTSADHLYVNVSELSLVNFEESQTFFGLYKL

B1: FAS immobilised for SPR (receptor, human, UniProt P25445 26-173, looked up)
chain: QVTDINSKGLELRKTVTTVETQNLEGLHHDGQFCHKPCPPGERKARDCTVNGDEPDCVPCQEGKEYTDKAHFSSKCRRCRLCDEGHGLEVEINCTRTQNTKCRCKPNFFCNSTVCEHCDPCTKCEHGIIKECTLTSNTKCKEEGSRSN
notes: FAS receptor, the protein immobilised in SPR; also called FAS receptor
B2: TNFSF13 used as analyte in SPR (ligand, human, UniProt O75888 105-250, looked up)
chain: AVLTQKQKKQHSVLHLVPINATSKDDSDVTEVMWQPALRRGRGLQAQGYGVRIQDAGVYLLYSQVLFQDVTFTMGQVVSREGQGRQETLFRCIRSMPSHPDRAYNSCYSAGVFHLHQGDILSVIIPRARAKLNLSPHGTFLGFVKL
notes: TNFSF13 (APRIL), the protein flowed over immobilised FAS in SPR; also called TNSF13; APRIL

The target in assay [1] is T1, FAS ligand (FASL) used as analyte in SPR. The assay is described as follows: SPR; FAS immobilised; TNFSF13 or FASL at various concentrations; sensorgrams fitted to a 1:1 kinetic binding model; n = 3 independent experiments. As to conditions: both partners purified. (In general: Surface plasmon resonance follows binding to a sensor surface in real time, without labels.)

The target of assay [2] is B1. Described as above. As to conditions: both partners purified.

One may read the Kd as the free concentration of one partner at which half of the binding sites on the other are occupied at equilibrium, for simple one-to-one binding. Read a low Kd as tighter binding. B1 registered a Kd in assay [1] of 4.09 nM. B2 yielded an equilibrium dissociation constant (Kd) in assay [2] of 60 nM.
